Consider two molecules from US20060019296A1, “Methods of indentifying modulators of the FGF receptor” (Mount Sinai School of Medicine, published 2006).

T1: hFGFR1 peptide, 22-residue peptide derived from the juxtamembrane region of hFGFR1 (residues 409-430 of SEQ … (named hFGFR1 (human); SEQ ID NO:2 is …)
T1 peptide: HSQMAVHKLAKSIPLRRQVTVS

B1: SNT-1 PTB domain (amino acid residues 11-140 of SEQ ID NO:1) (other)
chain: DTVPDNHRNKFKVINVDDDGNELGSGIMELTDTELILYTRKRDSVKWHYLCLRRYGYDSNLFSFESGRRCQTGQGIFAFKCARAEELFNMLQEIMQNNSINVVEEPVVERNNHQTELEVPRTPRTPTTPGLVPR

Square brackets hold non-standard residues; d marks the D form. Ends that are not written are not given here. pY = N[C@@H](Cc1ccc(OP(=O)(O)O)cc1)C(=O)O

The target of experiment [1] is T1, hFGFR1 peptide, 22-residue peptide …. The experiment in a line: isothermal titration calorimetry (ITC).
For experiment [2], the target named is B1. As to the kind of experiment: method not stated.

Broadly, the Kd is the concentration at which binding is half-saturated. A higher Kd goes with a looser complex. Take B1: the Kd in experiment [1] is ~10 µM.
In the case of LVIAGNPA[pY]RS [tyrosine-phosphorylated peptide LVIAGNPApYRS (SEQ ID NO:4)], in experiment [2], the dissociation constant (Kd) is ~1 µM and the “fold higher affinity than for the FGFR derived peptide of SEQ ID NO:3” value is ~10 fold.
